Columns and labels:
[1] = Body temperature monitoring for systemic anaphylactic response after intranasal C3a; type: in vivo, mouse
Description: Purified human C3a peptide (Complement Technologies) was diluted in sterile phosphate buffered saline (PBS) to a concentration of 200 nM and a total of 20 μl (10 μl/nostril; corresponding to approximately 1.13 μg/kg body weight) of peptide solution or PBS was given intranasally to awake, hand-restrained mice held in a supine position. Solutions were administered through a pipette tip, drop-wise in 5 μl portions divided by 1 min intervals to allow for absorption. C3a or PBS was given every 24 hours on days 7 to 21 post-stroke for the short-term study or on days 7 to 28 post-stroke for the long-term study. Mice were assigned to C3a or PBS treatment using randomization stratified by body weight to avoid potential confounding effects of body weight on behavioural performance. The investigators carrying out behavioural studies and analysing data were blinded to treatment group. For the assessment of potential systemic anaphylactic response due to intranasal C3a inoculation, body temperature was monitored using a rectal temperature probe (Harvard Apparatus) inserted approximately 4 mm into the rectum of awake mice restrained by the scruff. Baseline temperature was taken before intranasal administration and 5, 15, 30, 45 and 75 min after C3a or PBS administration.

GAP-43+ puncta = test: GAP-43 immunostaining of cortex 21 days after stroke; type: in vivo, mouse
Description: For immunofluorescent evaluation, sections were deparaffinized, heated three times for 5 min in a microwave oven in 0.01 M citric buffer (pH 6.0), and blocked in PBS containing 0.05% Tween-20 (Sigma) and 1% in Bovine serum albumin (BSA, Sigma) for GAP-43 and synapsin I staining, 3% normal goat serum for VGLUT1 staining or 4% normal donkey serum for GAP-43 double stainings. Goat anti-synapsin la/b antibody (1:150; Santa Cruz, sc-7379) was followed by biotin-conjugated donkey anti-goat immunoglobulin (Ig) secondary antibody (1:200; Jackson Research Lab, 705-065-147) and Cy3-conjugated streptavidin (1:100; Sigma). Guinea pig anti-VGLUT1 (1:500; Millipore, AB5905) was followed by Alexa Fluor 488 goat anti-guinea pig Ig (1:500; Molecular Probes, A11073). For single staining, mouse anti-GAP-43 antibody (1:1000; Millipore, MAB347), was followed by biotinylated rabbit anti-mouse Ig secondary antibody (1:200; Dako, E0354) and Cy3-conjugated streptavidin (1:100; Sigma). […]
Highest signal intensity single plane images of immunostained sections were obtained by laser scanning confocal microscope (LSM TCS SP2, Leica Microsystems, ×63/NA 1.3 objective for synapsin I and GAP-43; and LSM 700, Carl Zeiss for VGLUT1 ×40/NA 1.3) at 1024×1024 pixels resolution. […] Three standard sections per animal in 160 μm intervals were analysed. […]
Single-stained images were analysed using MetaMorph® software (Molecular Devices, ver. 2.8.5) to obtain number, average size and intensity of positive punctuate structures per image. […] An experimenter blinded to experimental group performed all image acquisitions and quantifications.

## C3a: Purified human C3a peptide (Complement Technologies), C3a receptor agonist, amino acid sequence SEQ ID NO: 1
[1]; after intranasal C3a or PBS
  duration of the drop in body temperature: 5 to 10 min
[1]; even after repeated administration, stroke studies
  adverse or systemic effects of intranasal C3a: did not observe any adverse or systemic effects
[1]; judged from body temperature
  adverse systemic response (hypersensitivity/anaphylaxis) to intranasal C3a: absence of an adverse systemic response
[1]; rectal probe, awake mice, baseline and 5, 15, 30, 45, 75 min after intranasal C3a, same seen with PBS
  change in body temperature after intranasal administration: very small drop in body temperature
GAP-43+ puncta; C3a-treated mice, P=0.012
  increase in density of GAP-43+ puncta, ipsilesional motor cortex vs corresponding contralesional region: ~50%
GAP-43+ puncta; P=0.015
  increase in density of GAP-43+ puncta, ipsilesional motor cortex vs ipsilesional cortex of PBS-treated mice: ~50%
GAP-43+ puncta; between experimental groups
  average size of GAP-43+ puncta: did not differ between the experimental groups

Reference: patent publication US11266715B2, “C3A receptor agonists for use against ischemic brain injury, stroke, traumatic brain injury, spinal cord injury and neurodegenerative disorders” (priority 2016, dated 2022)
